Consider three molecules from publication PMC10624902, “Structure of a membrane-bound menaquinol:organohalide oxidoreductase” (Nature Communications, 2023).

Data set [1] deals with T1, PceA2B2 complex (menaquinol:organohalide oxidoreductase, MOOR; DhPceA / DhPceB) (Desulfitobacterium hafniense, UniProt Q8GJ30+Q8GJ31).
T1 construct: gene pceA; native complex from D. hafniense membranes, DDM-solubilised, SEC into LMNG; no tag; PceA C-terminal domain S486-Q551 present; PceA exported via Tat
T1 sequence (Q8GJ31 40-551): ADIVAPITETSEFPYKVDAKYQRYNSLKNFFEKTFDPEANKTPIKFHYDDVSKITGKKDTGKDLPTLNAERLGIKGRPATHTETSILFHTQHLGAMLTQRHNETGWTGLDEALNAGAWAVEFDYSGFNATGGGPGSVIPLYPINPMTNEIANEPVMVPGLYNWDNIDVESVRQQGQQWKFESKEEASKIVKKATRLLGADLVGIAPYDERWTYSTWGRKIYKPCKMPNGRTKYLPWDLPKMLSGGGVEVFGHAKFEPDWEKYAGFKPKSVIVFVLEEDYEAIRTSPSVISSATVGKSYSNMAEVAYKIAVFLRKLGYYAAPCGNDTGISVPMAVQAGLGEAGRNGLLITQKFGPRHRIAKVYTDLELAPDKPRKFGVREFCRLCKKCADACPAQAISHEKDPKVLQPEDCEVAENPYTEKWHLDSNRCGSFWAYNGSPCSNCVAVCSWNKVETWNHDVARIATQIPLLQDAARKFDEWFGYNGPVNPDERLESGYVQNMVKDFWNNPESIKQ
T1 sequence (Q8GJ30 1-105): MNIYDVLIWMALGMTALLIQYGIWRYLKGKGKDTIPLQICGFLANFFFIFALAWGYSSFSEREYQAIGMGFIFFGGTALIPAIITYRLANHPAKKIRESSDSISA
Description: cryo-EM structure, […] A. The settings on record: PceA active site / channel, 5.3 A from cobalt; cells grown with PCE. Type of data set: binding.

Data set [2] deals with the molecule itself. In words: native gel or EMSA; Clear-Native PAGE (5-15% gradient, Bis-Tris) of DDM-solubilised membrane extract and soluble fraction, anaerobic; Coomassie and in-gel PCE dehalogenase activity staining; the ~180 kDa band cut out, run on SDS-PAGE as second dimension and analysed by LC-MS/MS. For orientation: A gel shift assay detects complexes by their altered migration in electrophoresis.

Data set [3] deals with the molecule itself. In words: cryo-EM structure; native PceA2B2 complex purified from the membrane extract by SEC in 25 mM HEPES-NaOH pH 7.5, 150 mM NaCl, 0.005% LMNG; single-particle analysis, C2 symmetry, 2.83 Å. For orientation: Size exclusion chromatography separates by hydrodynamic size, large species first.

Broadly, the stoichiometry N is the number of molecules, sites or subunits per partner or assembly.

`Cl/C=C\Cl` [cis-1,2-dichloroethene]: the “cryo-EM structure, 2.83 A” value in data set [1] was “density for a dichloroethene (DCE) molecule, the final product of PCE dechlorination”.

B1: PceA, catalytic subunit of the tetrachloroethene (PCE) reductive dehalogenase from Desulfitobacterium hafniense strain TCE1 (enzyme, UniProt Q8GJ31 40-551, looked up)
chain: T1 sequence (Q8GJ31 40-551)
notes: PceA, catalytic subunit of the PCE reductive dehalogenase, Desulfitobacterium hafniense strain TCE1 (DSM 12704), locus tag DeshaDRAFT_2412; C-terminal domain printed as S486-Q551; Native protein with a cobalamin and two [4Fe-4S] clusters; a menaquinone lies at the interface with PceB; the modelled residues are in PDB 8Q4H; also called DhPceA; RdhA; source: endogenous, D. hafniense strain TCE1: …
As for B1, in data set [2], the “stoichiometry N” value came to 2.

B2: PceB, integral membrane anchor subunit of the PCE reductive dehalogenase from Desulfitobacterium hafniense strain TCE1 (natural protein, UniProt Q8GJ30 1-105, looked up)
chain: T1 sequence (Q8GJ30 1-105)
notes: PceB, small integral membrane subunit with three transmembrane helices, encoded in the pceABCT operon of Desulfitobacterium hafniense strain TCE1; also called DhPceB; RdhB; source: endogenous, D. hafniense strain TCE1: DDM-solubilised membrane extract; purified as PceA2B2 complex by size-exclusion chromatography (Superose 6 Increase) for cryo-EM
As to B2, in data set [3], the binding result was “binds”.
